The source of these data is PMC3057995, “Potent Anti-Tumor Effect Generated by a Novel Human Papillomavirus (HPV) Antagonist Peptide Reactivating the pRb/E2F Pathway” (PLoS ONE, 2011).

For data set [1], the system named is SiHa cells. As to the method:
The 5-FAM labeled peptides were used to monitor the cell uptake and intracellular location of the peptide. SiHa cells were seeded on the coverslips in 12-well plates (1×10^5/well) and cultured overnight. The DMEM was replaced with a fresh medium, supplemented with 80 µM 5-FAM labeled peptide. Cells were washed three times with a PBS buffer after 8 h and 24 h of incubation, respectively, and then observed under a fluorescence microscope Leica DMI 6000B. Images were captured with Leica AF6500 software (Leica Mikrosysteme Vertrieb GmbH, Wetzlar, Germany).

Data set [2] addresses T1, His-HPV16E7 fusion protein (human papillomavirus type 16, UniProt P03129 1-98).
T1 construct: source: E. coli BL21, extracted in denaturing conditions, purified (Ni-NTA agarose)
T1 sequence (looked up): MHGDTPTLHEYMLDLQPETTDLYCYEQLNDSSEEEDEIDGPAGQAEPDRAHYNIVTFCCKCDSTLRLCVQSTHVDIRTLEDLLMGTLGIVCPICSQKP
Description: ELISA. A general note: An ELISA detects its analyte on a solid surface through an enzyme-linked reagent.

Bridge positions count the residues as written; N and C are the ends. Ends that are not written are not given here.

As for `O=C(O)c1ccc2c(c1)C(=O)OC21c2ccc(O)cc2Oc2cc(O)ccc21` [5-Fam], the “cell fluorescence (uptake control)” value in data set [1] is reported as “did not show fluorescence”.

Consider “positive phage clones displaying the peptide PKGLDWC”, for which, in data set [2], the inhibitory ratio of HPV16E7 mAb binding at 10^13 CFU/ml was more than 50%.

B1: Pep-7 (peptide)
peptide: SACPKGLDWCGG
modifications: disulfide 3-10 (inferred)
notes: also called selected peptide; antagonist peptide; source: synthetic peptide (Chinese Peptide Company), HPLC purified
As to B1, the binding result in data set [2] (both partners purified) is given as “binds”.
